Source: US20250277032A1 (published 2025)

Molecular target: human ILT3 (binding and competition assays, construct not stated) (human, UniProt Q8NHJ6 22-259)
Assay: binding to hILT3 (relative binding)

Binder	EC50
h5E5-42 (antibody, V domains shown) VH: QVQLVQSGAEVKKPGASVKVSCKASGYSFSGFYIDWVKQPPGKGLEWIGYIFPSNGETSYNQKFKGRVTMTVDKSTSTVYMELSSLRSEDTAVYYCARQAFYYFDYWGQGTTVTVSS VL: not shown	0.05 mg/L
h5E5-83 (antibody, V domains shown) VH: EVQLVQSGAEVKKPGASVKVSCKASGYSFSGFYIDWVKQPPGKGLEWIGYIFPSNGETSYNQKFKGRATMTVDKSTSTVYMELSSLRSEDTAVYYCARQAFYYFDYWGQGTTVTVSS VL: DIVMTQSPDSLAVSLGERATINCKSSQSLLSSSNQKNYLAWYQQKPGQAPRLLIYWASTRESGVPDRFAGSGSGTDFTLTISSLQAEDVAVYYCQQYYSYPLTFGQGTKLEIKR	0.1 mg/L
h5E5-22 (antibody, V domains shown) VH: EVQLVQSGAEVKKPGASVKVSCKASGYSFTGFYIDWVKQPPGKGLEWIGYIFPSNGETSYNQKFKGRATMTVDKSTSTVYMELSSLRSEDTAVYYCARQAFYYFDYWGQGTTVTVSS VL: not shown	0.08 mg/L
h5E5-73 (antibody, V domains shown) VH: QVQLVQSGAEVKKPGASVKVSCKASGYSFTGFYIDWVKQPPGKGLEWIGYIFPSNGETSYNQKFKGRVTMTVDKSTSTVYMELSSLRSEDTAVYYCARQAFYYFDSWGQGTTVTVSS VL: DIVMTQSPDSLAVSLGERATINCKSSQSLLSSSNQKNYLAWYQQKPGQAPRLLIYWASTRESGVPDRFAGSGSGTDFTLTISSLQAEDVAVYYCQQYYSYPLTFGQGTKLEIKR	0.09 mg/L
h5E5-84 (antibody, V domains shown) VH: EVQLVQSGAEVKKPGASVKVSCKASGYSFSGFYIDWVKQPPGKGLEWIGYIFPSNGETSYNQKFKGRATMTVDKSTSTVYMELSSLRSEDTAVYYCARQAFYYFDYWGQGTTVTVSS VL: not shown	0.08 mg/L
